Assays:
[1] = test system: HeLa Kyoto; experiment: solubility in G1/S (NP-40 vs SDS abundance) (log2 ratio); higher = more soluble; conditions: cell cycle stage: G1/S
[2] = test system: HeLa Kyoto; experiment: melting temperature (median over replicates), in situ; higher = more thermally stable
[3] = test system: HeLa Kyoto; experiment: solubility change mitosis vs G1/S (difference of NP-40 vs SDS log2 ratios) (log2 ratio difference); higher = more soluble in mitosis
[4] = test system: HeLa Kyoto; experiment: thermal stability score vs G1/S (z-score of summed log2 fold changes over temperatures); higher = more thermally stable than in G1/S
[5] = cell cycle stage: early G1 (4.5 h after nocodazole release)
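Wherever melting temperature (median over replicates), in situ is given: HeLa Kyoto cells synchronized by double thymidine or nocodazole block, proteins quantified by TMT10plex mass spectrometry, three independent biological replicates.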
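Wherever solubility change mitosis vs G1/S (difference of NP-40 vs SDS log2 ratios) is given: synchronized HeLa Kyoto cells (double thymidine block for G1/S, nocodazole release for mitosis), protein amounts in NP-40 versus SDS lysates quantified by mass spectrometry, three biological replicates.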
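Wherever solubility in G1/S (NP-40 vs SDS abundance) is given: HeLa Kyoto cells arrested at G1/S by double thymidine block, proteins quantified by TMT10plex mass spectrometry in mild NP-40 versus SDS extracts, three biological replicates.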
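Wherever thermal stability score vs G1/S (z-score of summed log2 fold changes over temperatures) is given: synchronized HeLa Kyoto cells, proteins quantified by TMT10plex mass spectrometry, three biological replicates, mitosis taken 0.5 h after nocodazole release, G1/S directly after double thymidine block.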

Row | Sequence | solubility in G1/S (log2) [1] | melting temperature ([2]; cell cycle stage: G1/S) [°C] | melting temperature ([2]; cell cycle stage: mitosis) [°C] | solubility change mitosis (log2) [3] | thermal stability score [4, 5] | thermal stability score ([4]; cell cycle stage: mitosis)
1 | MEGLTLSDAEQKYYSDLFSYCDIESTKKVVVNGRVLELFRAAQLPNDVVLQIMELCGATRLGYFGRSQFYIALKLVAVAQSGFPLRVESINTVKDLPLPRFVASKNEQESRHAASYSSDSENQGSYSGVIPPPPGRGQVKKGSVSHDTVQPRTSADAQEPASPVVSPQQSPPTSPHTWRKHSRHPSGGNSERPLAGPGPFWSPFGEAQSGSSAGDAVWSGHSPPPPQENWVSFADTPPTSTLLTMHPASVQDQTTVRTVASATTAIEIRRQSSSYDDPWKITDEQRQYYVNQFKTIQPDLNGFIPGSAAKEFFTKSKLPILELSHIWELSDFDKDGALTLDEFCAAFHLVVARKNGYDLPEKLPESLMPKLIDLEDSADVGDQPGEVGYSGSPAEAPPSKSPSMPSLNQTWPELNQSSEQWETFSERSSSSQTLTQFDSNIAPADPDTAIVHPVPIRMTPSKIHMQEMELKRTGSDHTNPTSPLLVKPSDLLEENKINSSVKFASGNTVADGYSSSDSFTSDPEQIGSNVTRQRSHSGTSPDNTAPPPPPPRPQPSHSRSSSLDMNRTFTVTTGQQQAGVVAHPPAVPPRPQPSQAPGPAVHRPVDADGLITHTSTSPQQIPEQPNFADFSQFEVFAASNVNDEQDDEAEKHPEVLPAEKASDPASSLRVAKTDSKTEEKTAASAPANVSKGTTPLAPPPKPVRRRLKSEDELRPEVDEHTQKTGVLAAVLASQPSIPRSVGKDKKAIQASIRRNKETNTVLARLNSELQQQLKDVLEERISLEVQLEQLRPFSHL [REPS1] | 0.0849 | 48.8 | 49.8 | -0.0971 | 0.407 | 0.261
2 | MEGLVVAAGGDVSLHNFSARLWEQLVHFHVMRLTDSLFLWVGATPHLRNLAVAMCSRYDSIPVSTSLLGDTSDTTSTGLAQRLARKTNKQVFVSYNLQNTDSNFALLVENRIKEEMEAFPEKF [PSMG4] | 0.14 | 57.5 | 54.1 | -0.0112 | -0.165 | -2.02
3 | MEGNRDEAEKCVEIAREALNAGNREKAQRFLQKAEKLYPLPSARALLEIIMKNGSTAGNSPHCRKPSGSGDQSKPNCTKDSTSGSGEGGKGYTKDQVDGVLSINKCKNYYEVLGVTKDAGDEDLKKAYRKLALKFHPDKNHAPGATDAFKKIGNAYAVLSNPEKRKQYDLTGNEEQACNHQNNGRFNFHRGCEADITPEDLFNIFFGGGFPSGSVHSFSNGRAGYSQQHQHRHSGHEREEERGDGGFSVFIQLMPIIVLILVSLLSQLMVSNPPYSLYPRSGTGQTIKMQTENLGVVYYVNKDFKNEYKGMLLQKVEKSVEEDYVTNIRNNCWKERQQKTDMQYAAKVYRDDRLRRKADALSMDNCKELERLTSLYKGG [DNAJB14] | 0.511 | 51.3 | 51.9 | -0.15 | -1.51 | 0.131
4 | MEGSGEQPGPQPQHPGDHRIRDGDFVVLKREDVFKAVQVQRRKKVTFEKQWFYLDNVIGHSYGTAFEVTSGGSLQPKKKREEPTAETKEAGTDNRNIVDDGKSQKLTQDDIKALKDKGIKGEEIVQQLIENSTTFRDKTEFAQDKYIKKKKKKYEAIITVVKPSTRILSIMYYAREPGKINHMRYDTLAQMLTLGNIRAGNKMIVMETCAGLVLGAMMERMGGFGSIIQLYPGGGPVRAATACFGFPKSFLSGLYEFPLNKVDSLLHGTFSAKMLSSEPKDSALVEESNGTLEEKQASEQENEDSMAEAPESNHPEDQETMETISQDPEHKGPKERGSKKDYIQEKQRRQEEQRKRHLEAAALLSERNADGLIVASRFHPTPLLLSLLDFVAPSRPFVVYCQYKEPLLECYTKLRERGGVINLRLSETWLRNYQVLPDRSHPKLLMSGGGGYLLSGFTVAMDNLKADTSLKSNASTLESHETEEPAAKKRKCPESDS [TRMT6] | 0.0845 | 54.9 | 56.2 | 0.019 | 2.23 | 0.0663
5 | MEIIRSNFKSNLHKVYQAIEEADFFAIDGEFSGISDGPSVSALTNGFDTPEERYQKLKKHSMDFLLFQFGLCTFKYDYTDSKYITKSFNFYVFPKPFNRSSPDVKFVCQSSSIDFLASQGFDFNKVFRNGIPYLNQEEERQLREQYDEKRSQANGAGALSYVSPNTSKCPVTIPEDQKKFIDQVVEKIEDLLQSEENKNLDLEPCTGFQRKLIYQTLSWKYPKGIHVETLETEKKERYIVISKVDEEERKRREQQKHAKEQEELNDAVGFSRVIHAIANSGKLVIGHNMLLDVMHTVHQFYCPLPADLSEFKEMTTCVFPRLLDTKLMASTQPFKDIINNTSLAELEKRLKETPFNPPKVESAEGFPSYDTASEQLHEAGYDAYITGLCFISMANYLGSFLSPPKIHVSARSKLIEPFFNKLFLMRVMDIPYLNLEGPDLQPKRDHVLHVTFPKEWKTSDLYQLFSAFGNIQISWIDDTSAFVSLSQPEQVKIAVNTSKYAESYRIQTYAEYMGRKQEEKQIKRKWTEDSWKEADSKRLNPQCIPYTLQNHYYRNNSFTAPSTVGKRNLSPSQEEAGLEDGVSGEISDTELEQTDSCAEPLSEGRKKAKKLKRMKKELSPAGSISKNSPATLFEVPDTW [PARN] | -0.144 | 48.7 | 50.7 | -0.0471 | 1.32 | 2.89
6 | MEKARRGGDGVPRGPVLHIVVVGFHHKKGCQVEFSYPPLIPGDGHDSHTLPEEWKYLPFLALPDGAHNYQEDTVFFHLPPRNGNGATVFGISCYRQIEAKALKVRQADITRETVQKSVCVLSKLPLYGLLQAKLQLITHAYFEEKDFSQISILKELYEHMNSSLGGASLEGSQVYLGLSPRDLVLHFRHKVLILFKLILLEKKVLFYISPVNKLVGALMTVLSLFPGMIEHGLSDCSQYRPRKSMSEDGGLQESNPCADDFVSASTADVSHTNLGTIRKVMAGNHGEDAAMKTEEPLFQVEDSSKGQEPNDTNQYLKPPSRPSPDSSESDWETLDPSVLEDPNLKEREQLGSDQTNLFPKDSVPSESLPITVQPQANTGQVVLIPGLISGLEEDQYGMPLAIFTKGYLCLPYMALQQHHLLSDVTVRGFVAGATNILFRQQKHLSDAIVEVEEALIQIHDPELRKLLNPTTADLRFADYLVRHVTENRDDVFLDGTGWEGGDEWIRAQFAVYIHALLAATLQLDNEKILSDYGTTFVTAWKNTHNYRVWNSNKHPALAEINPNHPFQGQYSVSDMKLRFSHSVQNSERGKKIGNVMVTTSRNVVQTGKAVGQSVGGAFSSAKTAMSSWLSTFTTSTSQSLTEPPDEKP [AVL9] | 0.0785 | 54.3 | 54.1 | -0.155 | 0.365 | 0.676
7 | MEKGLTLPQDCRDFVHSLKMRSKYALFLVFVVIVFVFIEKENKIISRVSDKLKQIPQALADANSTDPALILAENASLLSLSELDSAFSQLQSRLRNLSLQLGVEPAMEAAGEEEEEQRKEEEPPRPAVAGPRRHVLLMATTRTGSSFVGEFFNQQGNIFYLFEPLWHIERTVSFEPGGANAAGSALVYRDVLKQLFLCDLYVLEHFITPLPEDHLTQFMFRRGSSRSLCEDPVCTPFVKKVFEKYHCKNRRCGPLNVTLAAEACRRKEHMALKAVRIRQLEFLQPLAEDPRLDLRVIQLVRDPRAVLASRMVAFAGKYKTWKKWLDDEGQDGLREEEVQRLRGNCESIRLSAELGLRQPAWLRGRYMLVRYEDVARGPLQKAREMYRFAGIPLTPQVEDWIQKNTQAAHDGSGIYSTQKNSSEQFEKWRFSMPFKLAQVVQAACGPAMRLFGYKLARDAAALTNRSVSLLEERGTFWVT [CHST3] | 0.15 | 55.3 | 53.5 | -0.0403 | -1.54 | -0.213

Source: the supplement of paper PMC5998384
